The text below walks through data of patent US6406886.

One data set addresses Ran. As to the kind of experiment: cell-based or functional assay.
In data set [1] the target is human RhoA (1st to 193 residues) GST fusion protein (UniProt P61586).
The target of data set [2] is human Rap1A (Glu63) (1st to 184th residues) (UniProt P62834).
Data set [3] has as its target yeast Rsr1 (1st to 272nd residues) (UniProt P13856).
Data set [4] concerns the target human Ha-Ras (1st to 189th residues) (UniProt P01112).

fusion protein of human GAP3 (75th to 663rd amino acid residues) and GST, sequence (chain, as listed by the source): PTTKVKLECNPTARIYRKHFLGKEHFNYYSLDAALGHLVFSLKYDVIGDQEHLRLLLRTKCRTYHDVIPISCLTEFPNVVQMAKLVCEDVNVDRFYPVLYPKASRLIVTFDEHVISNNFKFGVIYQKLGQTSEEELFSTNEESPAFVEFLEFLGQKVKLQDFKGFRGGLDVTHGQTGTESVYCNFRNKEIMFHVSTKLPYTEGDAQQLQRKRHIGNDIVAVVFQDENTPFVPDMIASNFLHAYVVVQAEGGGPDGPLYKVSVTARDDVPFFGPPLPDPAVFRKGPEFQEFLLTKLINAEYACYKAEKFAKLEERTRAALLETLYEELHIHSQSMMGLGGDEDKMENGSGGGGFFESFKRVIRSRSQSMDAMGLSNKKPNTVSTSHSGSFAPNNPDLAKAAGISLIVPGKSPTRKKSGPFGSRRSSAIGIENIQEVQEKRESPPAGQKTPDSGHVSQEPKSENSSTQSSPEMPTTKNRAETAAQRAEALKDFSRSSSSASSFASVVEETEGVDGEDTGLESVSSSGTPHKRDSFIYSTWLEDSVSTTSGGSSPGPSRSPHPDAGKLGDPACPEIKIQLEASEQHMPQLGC
human RhoA (1st to 193 residues) GST fusion protein, sequence (P61586 whole entry, the tested form may be a part): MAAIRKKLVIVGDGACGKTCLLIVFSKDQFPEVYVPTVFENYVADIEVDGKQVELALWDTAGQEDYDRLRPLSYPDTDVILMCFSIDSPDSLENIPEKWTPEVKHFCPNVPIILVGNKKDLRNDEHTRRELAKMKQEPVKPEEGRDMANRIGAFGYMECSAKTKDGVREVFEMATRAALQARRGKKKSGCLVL
human Rap1A (Glu63) (1st to 184th residues), sequence (P62834 whole entry, looked up): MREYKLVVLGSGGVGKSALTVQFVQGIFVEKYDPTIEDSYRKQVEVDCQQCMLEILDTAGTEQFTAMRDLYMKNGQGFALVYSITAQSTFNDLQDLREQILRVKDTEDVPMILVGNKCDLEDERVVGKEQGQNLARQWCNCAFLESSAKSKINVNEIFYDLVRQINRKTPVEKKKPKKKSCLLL
human Ha-Ras (1st to 189th residues), sequence (P01112 whole entry, looked up): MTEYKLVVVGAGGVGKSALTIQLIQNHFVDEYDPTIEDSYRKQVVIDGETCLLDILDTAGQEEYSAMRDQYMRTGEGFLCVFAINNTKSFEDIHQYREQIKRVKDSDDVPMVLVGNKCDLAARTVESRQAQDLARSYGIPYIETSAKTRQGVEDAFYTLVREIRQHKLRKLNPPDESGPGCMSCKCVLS
yeast Rsr1 (1st to 272nd residues), sequence (P13856 whole entry): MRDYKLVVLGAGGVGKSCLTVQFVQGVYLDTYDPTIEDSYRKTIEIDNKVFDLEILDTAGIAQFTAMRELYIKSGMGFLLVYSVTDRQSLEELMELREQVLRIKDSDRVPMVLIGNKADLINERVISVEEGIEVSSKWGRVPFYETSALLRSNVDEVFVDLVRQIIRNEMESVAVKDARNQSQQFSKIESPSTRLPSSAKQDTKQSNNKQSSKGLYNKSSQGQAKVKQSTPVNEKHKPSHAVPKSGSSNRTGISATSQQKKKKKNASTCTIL

NF1-GDR(Ras GAP) (enzyme) registered an EC16 (µg/ml), activation of Ran GTPase in the data set with Ran of 300 µg/mL. Consider “fusion protein of human GAP3 (75th to 663rd amino acid residues) and GST”, for which the Stimulation (times) of GTPase activity came to 0 times in data set [1], 10 times in data set [2], 7 times in data set [3] and 0 times in data set [4]. In the data set with Ran, “fusion protein of human GAP3 (75th to 663rd amino acid residues) and GST (from UniProt P47736 75-663) (enzyme)” yielded an EC16 (µg/ml), activation of Ran GTPase of 130 µg/mL. In the data set with Ran, p190C(Rho GAP) (enzyme) returned an EC16 (µg/ml), activation of Ran GTPase of 150 µg/mL.
